To fix the notation:
B1: Recombinant C4b α chain (domain or fragment)
chain: AMELLQEEELIEEDDIPVRSFFPENWLWRVEEVPHSLQLSLLLPDSLTTWEIHGVSLSKSTGLCVATPARVRVFREFHLHLRLPVSIHRFEQLELRPVLYNYLDKDVPVSVHVSPVEGLCLAGGGGLAQQVLVPAGSARPVGFSVVPISAAAVSLKVVARGSFDFPVGDAVSKILQIANEGAIHQEELVYALNPQNVLGRNLEIPGHSDPNVIPDGDFRSFVRLTASDPLDTLGSEGALSPGGLASLLRLPRGCAEQTMFYLAPTLAASRYLDKTEQWSTLPPETKDHAVDLIQKGYTRIQEFRKNDGSYGAWLHRESSTWLTAFVLKVLSLAQEQVGGSPEKLQETAAWLLLQQKEDGSFHDPCPVIHRDMQGGLVGNDEKVALTAFVVIALHHGLAVFQDRNAEQFKRVENAISTANDFLGEKVSSGLLGSHAAAISAYALSLSGAPEQLQDIAHNNLMAMAQKIGDHLFWGTVPSSQSNTLSPTPAPQRPTDPMPQAPALWIETTAYALLHLLIREGKAEMADQTASWLTRQGSYKGGFRSTQDTVIALDALSAYWILSHTTEEKELNVTLSSMSRGGFKSHVVRLTNHQVKGLEEELQFSLGSKINVKVGGNSKGTLKILRAYNVIDLKNTTCQDLQIEVTVKGHVEYMLEANEDYEEYEYEDLPAQDDPGAHSQPVTPLQLFDG

Test in all cases: SPR; Biacore 8K, single-cycle; C4bα and C4bβ covalently immobilised on CM5 chip (about 1500 RU); CR1-like fragments or mutant as mobile phase, 1.56 × 10^-2 to 4 μM; 25 °C; 10 mM HEPES pH 7.4, 150 mM NaCl, 0.05% Tween-20; apparent KD = kd/ka
What all share (conditions): both partners purified
Background: SPR reads the build-up and loss of mass on a sensor chip optically.

The target of assay [1] is T1, Recombinant CR1-like CCPs 12-14 (pig).
T1 construct: porcine CR1-like, CCP domains 12-14; Section 2.12 describes 6His-sumo (N-terminal) and flag (C-terminal) tags and insect cells for 'CR1-like fragments' in general

The target in the assay “Recombinant C4b α chain” is B1.
The next assay addresses T2, Recombinant C4b β chain (pig).
T2 construct: beta chain of porcine complement C4b, expressed as a separate chain; source: Escherichia coli (pET28a), purified (Ni-NTA, SP-HP cation exchange); not shown: 6His, N-terminal, kept; Flag-ppase, N-terminal, kept

As for B1, the Kd in assay [1] worked out at 317 nM.

B2: Recombinant CR1-like CCPs 1-3 (domain or fragment)
chain: not shown
For B2, the Kd was 226 nM with Recombinant C4b α chain and 173 nM with Recombinant C4b β chain.

The record behind these values is paper PMC12846707, “Structural and Functional Analysis of Porcine CR1-like Proteins in C4b-Mediated Immune Responses” (Veterinary Sciences, 2025).
